Data published in the supplement of paper PMC12042874.
± gives the uncertainty stated by the source.

Experiment: amyloid nucleation score (Sup35N fusion, yeast selection) (log enrichment); library NNK1; higher = more nucleation; inactive = no reads after selection
Method in brief: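 Yeast lacking psi expressed peptides of 20 random codons fused to Sup35N, received 100 μM copper sulfate for 24 hours, and were then grown for 7 days at 30°C on medium lacking adenine and uracil. Illumina sequencing of input and output plasmid inserts provided the reads. Nucleation scores are DiMSum log enrichments of output over input, centred on the mode of non-aggregating sequences. Any sequence with under 100 input reads was excluded.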

Row | Substance | amyloid nucleation score
1 | IVSNAIIPTGEG | 0.283 ± 0.71
2 | LLKRRTREIAALYRHSSNGY | 1.26 ± 0.57
3 | TTVGNVFSGVHV | 0.027 ± 1.7
4 | VRWNWSGPNELYLRLFCRLP | -0.508 ± 0.39
5 | VFHSMC | 0.761 ± 0.39
6 | PSKSVCKPCRWSGSWWGER | 0.073 ± 1.6
7 | SLAPLHLFERMGGRS | 0.532 ± 0.86
8 | TFIMSQSWFMQWPRTMAAMT | -0.346 ± 0.45
9 | AFLMMSTVAPTLWMIMPSYS | 0.446 ± 0.48
10 | TIAKST | -0.885 ± 0.86
11 | KSTSQSYVIFFAQCFKYTTV | -0.592 ± 0.31
12 | VKYSVENCMITWDVYMGASL | -0.561 ± 0.29
13 | CVFGYCVALHF | 6.18 ± 0.073
14 | AHLRCDREDIVESTSECGVG | inactive
15 | MCLSPVNNVLLYFRFNKRAE | 3.38 ± 0.12
16 | EVYKHHYLA | 0.044 ± 0.47
17 | SFLDMSTKVEYESIWTSTVA | 0.568 ± 0.45
18 | IMMHSGPRKVPGSFGQTVHD | 0.019 ± 0.68
19 | RWCGKPRICFSISEAVDKLH | -0.2 ± 0.21
20 | NTDLTNRSDYLYIV | -1.78 ± 1.2
21 | GCLKTVGCA | -0.22 ± 0.64
22 | VDIKFFMGLAFMWRYSSTAD | -0.063 ± 0.39
23 | DVVTSGILTASSRWYVRRGR | -0.729 ± 1.2
24 | LTSWLDYDDISEWHRSDGFR | 0.987 ± 0.57
25 | IMCISFVFFNLKGYGGTG | 3.11 ± 0.082

Row | Substance | amyloid nucleation score
26 | HPLWGPYR | 0.518 ± 0.59
27 | WQKSWR | 5.24 ± 0.074
28 | VSRVDCDNFGLRSRVSAL | 0.503 ± 0.37
29 | VKLCRACCYEYWRHHSPLGC | 0.594 ± 0.43
30 | YFKFRGDDCENYWSVSGNEA | 0.111 ± 1.2
31 | GFYSLHTALARIPHEHAVFF | -0.018 ± 0.61
32 | FFMIRRMLVTGWARQCIPRY | -0.105 ± 0.75
33 | ANLACACCCYP | -0.146 ± 0.96
34 | SHVFAIRT | 0.574 ± 0.77
35 | GLVNFTVVLTFV | 2.82 ± 0.3
36 | AVIAMYRVNAPSC | 1.15 ± 0.41
37 | FWTAPKLARDMSVLVTVFFY | -1.4 ± 2.1
38 | WNQTSPRQCAVTMSANVTGN | 0.575 ± 0.68
39 | SKIESHFWLVFNIRGSYNKA | 7.298 ± 0.046
40 | NVDWSPKRNINMGGWEKWLV | 0.261 ± 0.92
41 | KFVYVVVMSMARACRNVPGH | 0.272 ± 0.39
42 | ERYSMLDGFGSDLNWIIYNN | 0.978 ± 0.71
43 | ELEPCDPGF | inactive
44 | MNFSYLWVYGNGL | -0.629 ± 0.63
45 | FNRLSCFFSKSHPVQTGYNS | -0.01 ± 0.51
46 | QFIRILDQSKILYLCCFLDT | 5.64 ± 0.061
47 | MPCFGVQKIYQLDETMPSET | 0.141 ± 0.45
48 | LSNSSEVPHNSVNINDFVWD | inactive
49 | VCYVAMLNHTSPMSLASSAR | inactive
50 | TKSMEPSGR | 0.046 ± 0.52

Row | Substance | amyloid nucleation score
51 | NLALLEYVINSVSTMFYISN | 0.276 ± 0.24
52 | FERSW | inactive
53 | RKRVCSGLRSFWSFFRCLRV | -0.711 ± 2.1
54 | GFSANGLPCGAEAGEVFYTV | -0.725 ± 0.81
55 | VQVQVGSFELNSGQRRSVLK | -0.516 ± 1.3
56 | HSYTTV | -0.905 ± 2.1
57 | LSTVRLFILEPLYGGPPRNG | -1.4 ± 1.4
58 | KAAGMGSCSYTMVNYTPDAG | 1.39 ± 0.23
59 | YCDVSTYMSEHTISVAQAQS | 0.284 ± 0.41
60 | RIVILLKVIYFQFYRLQYIT | 0.03 ± 0.32
61 | ILVLRGCIKLR | inactive
62 | TLWTWTSYRVVLYSSSVKLG | -0.451 ± 0.32
63 | SKVIESDSVCYILHRFKNQC | 1.09 ± 0.17
64 | GFFLVLYHCFYWISRVR | 0.737 ± 0.58
65 | LLCDWDGQ | 0.497 ± 0.43
66 | VFASGAAGTKFWR | 0.302 ± 0.27
67 | HCLAGNLDLAMVRVRSPTCL | 0.032 ± 0.59
68 | FMCTINKFLYTVACPWHYLP | 3.96 ± 0.16
69 | IQAKKDPTAESQRGCC | 0.197 ± 0.51
70 | LYVDYQCIGSFVTIYKYITP | 0.889 ± 0.27
71 | APMHINLWRDGTNVGQDWVV | 1.88 ± 0.69
72 | SWNMSFVWFHGCITWRQKGF | 0.408 ± 0.4
73 | DPTTPYDISGIWLRLEVRAD | -0.175 ± 0.46
74 | FNLVKT | 0.704 ± 0.69
75 | QRLFRYNPTKSRGLCNNTWA | 0.59 ± 0.22

Row | Substance | amyloid nucleation score
76 | NHFGAYVVYGFIEHKKTGMW | 1.82 ± 0.19
77 | QSDKCCLMYGECVHVVC | 2.83 ± 0.069
78 | RDSHSLMVVGFRYELSQGLK | 0.496 ± 1.1
79 | MTAPHFLYLKRPHRPTRPDL | 0.898 ± 0.58
80 | ERMSRLCSQSGARRKCGAGC | 1.01 ± 0.64
81 | DRLGDHLKDILVKFYNV | 0.294 ± 0.99
82 | YAYEIGFVILQFFNNRVFAL | inactive
83 | SDGQNRTTMTYFPSVGWVSS | -1.98 ± 2.7
84 | YVIHLPKCTKLWMWANCFLW | -0.215 ± 0.62
85 | IGIFIGRLCCYIFGEVMR | 1.16 ± 0.16
86 | LYHWYLRR | inactive
87 | LHLNSCSQNITSLHYLPFWA | -0.113 ± 0.39
88 | PTTYNYSCVGIVSFDFSESI | 5.293 ± 0.052
89 | LLAEASLVKETTLCYHSPSL | 0.04 ± 0.56
90 | GKSTCFSMKQECLAEREEEG | 0.257 ± 0.81
91 | FFGFCSSVES | 0.662 ± 0.51
92 | VSLNASPL | 0.902 ± 0.57
93 | SEICLLVSSKSGHDAQSTIS | -0.011 ± 1.2
94 | FSTVILSAYSAFSFGIYLLS | 1.46 ± 0.33
95 | PFYNSQ | -0.371 ± 0.41
96 | PTCQGITWMPRQLWLMGGAD | 0.507 ± 0.6
97 | CIIVNMFYWALFYFGSEMFS | 0.738 ± 0.53
98 | FFMLGSSY | inactive
99 | DVVICRYSAVIRVFLTLKFK | -0.202 ± 0.49
100 | ALRAP | -0.383 ± 0.62

Row | Substance | amyloid nucleation score
101 | GIPYSVDGYVLVDVSITTIA | inactive
102 | HLMMTLFFVPVLMCITFTDG | -0.032 ± 0.3
103 | VLCSMDSVGSSGASGIFTYM | -0.025 ± 0.4
104 | MESLIRFSPASKIVISPFTV | 0.748 ± 1.2
105 | TWRFVFCFFWTRGPRLLICA | -0.768 ± 0.37
106 | TVTGFMF | -0.645 ± 1.7
107 | PDSLFPLCFLRLWLISSIVR | 1.49 ± 0.84
108 | EVYVRRRVSIQKEGVLHAQK | 0.907 ± 0.97
109 | SCFVSSSAIPWVIHSKFDLG | 0.143 ± 0.55
110 | FYPFLQR | 1.48 ± 0.63
111 | HSAFSWNYRDSFVEGCSSHG | 0.018 ± 0.3
112 | RTCHSQICFSGRMYRLFVMI | 0.41 ± 0.48
113 | EIFSNPSVYHESMK | -0.072 ± 1.2
114 | VFTFLSMLRWVIFCNVVGVD | inactive
115 | QSNSTYYGGSSRSGEKFPLG | 3.83 ± 0.083
116 | MCFDGICMNWWVR | 2.96 ± 0.086
117 | PYWTVYGELL | 0.116 ± 0.97
118 | TGLDNHNICNRDTR | -0.034 ± 0.62
119 | NLCSFFMFTIILGGNVGTFM | 7.208 ± 0.044
120 | MFVDFTDVRMVYLSLCVYML | 1.25 ± 0.093
121 | HRCRREYSQSSGSWDESIEN | 1.05 ± 0.14
122 | VKRRVSDTHVSCVKGHGSVC | inactive
123 | SLDLL | -0.244 ± 0.46
124 | VVSRWLRVFNFFEAKDFILV | -1.74 ± 2.7
125 | ESRLLYSFRWVGERAVPSAN | 0.4 ± 0.58

Row | Substance | amyloid nucleation score
126 | FINWLPNNDHFFCRNWICLQ | 5.902 ± 0.05
127 | WTVSWHIVGYSRVDVMKRTK | inactive
128 | LSGGPSGLINAFLYPSPNKW | 0.07 ± 0.81
129 | QMRSVYVQDTINMALIIHEL | 0.617 ± 0.27
130 | CLNWVCRRFWVSITHFWAWV | 0.066 ± 0.51
131 | DSVLQDTLIMWCSMKTVSPS | -0.075 ± 0.29
132 | FCRGKPRRLVP | -0.219 ± 0.67
133 | RVEVSGVLALANPLVPF | 0.92 ± 0.6
134 | HCSFSWGYRWLGWTTKSGNM | 1.31 ± 0.4
135 | VRHMWWVFPIFEISVRKCPV | -0.116 ± 1
136 | IVTEVGGVVDEYARWPVGMT | 8.737 ± 0.05
137 | VYYIVFPTTLSVDKFFPIWC | 2.26 ± 0.18
138 | AFCIFCSRLAEIAHLAF | 7.133 ± 0.046
139 | FKEYQRNA | -1.04 ± 2.7
140 | PRTNSNMIKCYIFDNAWNQL | 6.234 ± 0.055
141 | REGATIPWFRCNRLE | -0.167 ± 0.33
142 | TLVKLVVTIGLDIKDCGFVI | 0.018 ± 0.18
143 | LVRYLCVPSFGKAGYDGEGE | -0.86 ± 0.79
144 | LIWAVLCVKHTKEYVWLAHL | -0.469 ± 0.54
145 | NDQVNVNFS | 0.338 ± 0.22
146 | SGNGRRWSVLTDLAMLLLWL | -0.316 ± 0.41
147 | RVDPLV | inactive
148 | QIIHGCSAGLQLT | 0.809 ± 0.47
149 | NLTRHVDVANPAPRLPHLGV | -0.146 ± 0.46
150 | FCYYKCNESGP | -0.751 ± 0.71

Row | Substance | amyloid nucleation score
151 | SFCLAVGPNLMTIGICMLQQ | inactive
152 | QTLCCETRWSGENRSDAFRV | -0.596 ± 0.79
153 | YLWADTRCLTGVW | 0.413 ± 1.1
154 | VMYPRATLSQLRLKVTN | -0.116 ± 0.4
155 | PVKNRYTHR | inactive
156 | LVQMLTVDCATEKLHLAILS | 0.567 ± 0.64
157 | VIASSATGYIHR | 2.46 ± 0.12
158 | TNRKIQSLPTVCVCIRGSSG | 2.95 ± 0.11
159 | LVVVGGKLNLTTWNAR | 0.829 ± 1
160 | TNCGITFVFTPIPRATTWSN | 5.37 ± 0.083
161 | MDSDRVRPDESSVGLN | 0.915 ± 0.56
162 | CHVIIVQRYFMSVTLSQCWW | 0.489 ± 0.24
163 | LNYLYDIMLSSLTSQTDSMS | -0.689 ± 0.66
164 | IMNLSRNRVGLRVYGI | -0.029 ± 0.41
165 | SLACRVGKYNHSYLSSLV | 0.583 ± 0.4
166 | DTLDLQLRNVRLTRACMAQY | 0.329 ± 0.34
167 | TGLWPMEYSCQCDVVYPVSY | -0.051 ± 0.76
168 | YSCFDRAPRFETSVESCDMS | 0.093 ± 0.87
169 | INVIYNICFQVSW | 8.413 ± 0.052
170 | DDTIFLMRAIMVFNLICWCV | inactive
